Experimental data from doi:10.1101/2024.01.16.575844.

Target: C3b (human) (UniProt P01024)
Test: radioligand binding

UniProt P01024, sequence (P01024 whole entry, looked up): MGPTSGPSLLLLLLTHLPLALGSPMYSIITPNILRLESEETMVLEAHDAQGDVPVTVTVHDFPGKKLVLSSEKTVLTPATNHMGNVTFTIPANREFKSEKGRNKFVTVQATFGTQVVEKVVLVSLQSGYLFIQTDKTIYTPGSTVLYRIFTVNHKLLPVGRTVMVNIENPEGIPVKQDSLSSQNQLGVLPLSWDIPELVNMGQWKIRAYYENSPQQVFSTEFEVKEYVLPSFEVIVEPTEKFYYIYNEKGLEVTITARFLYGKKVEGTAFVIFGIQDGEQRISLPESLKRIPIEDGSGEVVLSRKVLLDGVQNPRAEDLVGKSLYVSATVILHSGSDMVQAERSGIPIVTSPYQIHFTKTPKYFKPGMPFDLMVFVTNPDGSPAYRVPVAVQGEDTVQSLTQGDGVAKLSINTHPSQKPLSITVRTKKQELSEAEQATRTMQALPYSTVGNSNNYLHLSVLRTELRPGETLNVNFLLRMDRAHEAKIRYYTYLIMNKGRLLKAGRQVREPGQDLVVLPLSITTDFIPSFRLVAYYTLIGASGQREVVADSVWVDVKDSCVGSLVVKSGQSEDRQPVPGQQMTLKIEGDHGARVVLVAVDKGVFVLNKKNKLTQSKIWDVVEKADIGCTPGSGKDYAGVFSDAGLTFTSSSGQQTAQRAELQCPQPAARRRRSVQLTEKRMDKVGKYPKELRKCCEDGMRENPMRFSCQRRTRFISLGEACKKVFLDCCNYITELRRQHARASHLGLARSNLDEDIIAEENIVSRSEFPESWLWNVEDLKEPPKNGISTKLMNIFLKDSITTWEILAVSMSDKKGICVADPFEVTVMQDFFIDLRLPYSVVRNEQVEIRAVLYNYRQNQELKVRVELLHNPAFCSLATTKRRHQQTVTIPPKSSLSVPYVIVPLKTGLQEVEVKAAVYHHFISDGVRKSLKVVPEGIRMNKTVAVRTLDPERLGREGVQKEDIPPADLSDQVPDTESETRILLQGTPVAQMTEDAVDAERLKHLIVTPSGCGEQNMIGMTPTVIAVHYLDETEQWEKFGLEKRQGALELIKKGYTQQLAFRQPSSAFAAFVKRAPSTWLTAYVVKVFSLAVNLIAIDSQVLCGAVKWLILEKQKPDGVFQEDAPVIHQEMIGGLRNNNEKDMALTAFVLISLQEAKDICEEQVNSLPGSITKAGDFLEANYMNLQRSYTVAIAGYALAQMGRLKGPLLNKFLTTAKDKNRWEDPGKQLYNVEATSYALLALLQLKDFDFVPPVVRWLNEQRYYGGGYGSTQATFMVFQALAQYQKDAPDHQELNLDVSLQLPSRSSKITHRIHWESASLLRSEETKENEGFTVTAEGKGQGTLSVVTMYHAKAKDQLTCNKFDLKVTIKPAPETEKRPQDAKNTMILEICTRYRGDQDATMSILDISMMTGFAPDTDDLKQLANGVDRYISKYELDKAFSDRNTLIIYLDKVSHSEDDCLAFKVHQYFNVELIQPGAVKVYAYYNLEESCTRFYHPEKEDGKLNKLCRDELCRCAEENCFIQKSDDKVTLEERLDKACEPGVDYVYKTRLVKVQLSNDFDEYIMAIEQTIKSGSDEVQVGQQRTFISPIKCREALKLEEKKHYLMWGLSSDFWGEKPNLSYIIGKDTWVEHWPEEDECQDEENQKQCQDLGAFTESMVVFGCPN

**Q.** Which results are given for complement factor B (natural protein)?
**A.** binding in 5 mM EDTA as percent of that in 0.2 mM Mg2+: 60 to 70%; percent by which binding in 5 mM Mg2+ exceeds that in 0.02 mM Mg2+: 50%; percent inhibition of 125I-labelled factor B binding to C3b-thiol Sepharose: 100%
